US6869778 (Scripps Research, dated 2005)

biological target: plasminogen activator inhibitor, type 1 (PAI-1) (UniProt P05121 24-402); test: enzyme preincubated with PAI-1 under pseudo-first order conditions at 23 degrees Celsius; residual activity read in indirect chromogenic assay
Protocol: Second order rate constants for the inhibition of wild type human t-PA and variant t-PA were measured under pseudo-first order conditions as previously described. Briefly, enzyme and inhibitor were preincubated at 23 degrees Celsius for periods of time varying from 0–30 minutes. Following preincubation, the mixtures were diluted, and the residual enzymatic activity was measured in a standard indirect chromogenic assay. For each enzyme, the concentrations of enzyme and inhibitor and the times of preincubation were chosen to yield several data points for which the residual enzymatic activity varied between 20% and 80% of the initial activity. Data were analyzed by plotting the natural logarithm of the ratio (residual activity/initial activity) versus time of preincubation and measuring the resulting slopes. Division of this slope by –[I] yielded the second order rate constants shown.

Chain of plasminogen activator inhibitor, type 1 (PAI-1) (P05121 24-402 limits assumed): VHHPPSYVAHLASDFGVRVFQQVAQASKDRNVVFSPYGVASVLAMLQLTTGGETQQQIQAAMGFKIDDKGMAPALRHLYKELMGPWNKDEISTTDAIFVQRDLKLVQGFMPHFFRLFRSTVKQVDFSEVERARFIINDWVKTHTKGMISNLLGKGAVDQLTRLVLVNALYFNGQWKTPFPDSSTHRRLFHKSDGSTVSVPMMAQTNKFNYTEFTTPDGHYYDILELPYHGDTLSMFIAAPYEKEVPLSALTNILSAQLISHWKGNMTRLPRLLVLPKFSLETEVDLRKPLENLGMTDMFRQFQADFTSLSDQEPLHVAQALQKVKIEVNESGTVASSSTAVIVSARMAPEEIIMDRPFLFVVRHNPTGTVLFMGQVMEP

| Second Order Rate Constant for inhibition by PAI-1 [M⁻¹ s⁻¹] | Binder |
| --- | --- |
| 1.8e+06 | t-PA/R275E, single-chain form (enzyme, Noncleavable single-chain enzyme, secreted from COS-1 cells only as a single chain) SYQVICRDEKTQMIYQQHQSWLRPVLRSNRVEYCWCNSGRAQCHSVPVKSCSEPRCFNGGTCQQALYFSDFVCQCPEGFAGKCCEIDTRATCYEDQGISYRGTWSTAESGAECTNWNSSALAQKPYSGRRPDAIRLGLGNHNYCRNPDRDSKPWCYVFKAGKYSSEFCSTPACSEGNSDCYFGNGSAYRGTHSLTESGASCLPWNSMILIGKVYTAQNPSAQALGLGKHNYCRNPDGDAKPWCHVLKNRRLTWEYCDVPSCSTCGLRQYSQPQFEIKGGLFADIASHPWQAAIFAKHRRSPGERFLCGGILISSCWILSAAHCFQERFPPHHLTVILGRTYRVVPGEEEQKFEVEKYIVHKEFDDDTYDNDIALLQLKSDSSRCAQESSVVRTVCLPPADLQLPDWTECELSGYGKHEALSPFYSERLKEAHVRLYPSSRCTSQHLLNRTVTDNMLCAGDTRSGGPQANLHDACQGDSGGPLVCLNDGRMTLVGIISWGLGCGQKDVPGVYTKVTNYLDWIRDNMRP |
| 210000 | t-PA/R275E,H417E, single-chain form (enzyme) SYQVICRDEKTQMIYQQHQSWLRPVLRSNRVEYCWCNSGRAQCHSVPVKSCSEPRCFNGGTCQQALYFSDFVCQCPEGFAGKCCEIDTRATCYEDQGISYRGTWSTAESGAECTNWNSSALAQKPYSGRRPDAIRLGLGNHNYCRNPDRDSKPWCYVFKAGKYSSEFCSTPACSEGNSDCYFGNGSAYRGTHSLTESGASCLPWNSMILIGKVYTAQNPSAQALGLGKHNYCRNPDGDAKPWCHVLKNRRLTWEYCDVPSCSTCGLRQYSQPQFEIKGGLFADIASHPWQAAIFAKHRRSPGERFLCGGILISSCWILSAAHCFQERFPPHHLTVILGRTYRVVPGEEEQKFEVEKYIVHKEFDDDTYDNDIALLQLKSDSSRCAQESSVVRTVCLPPADLQLPDWTECELSGYGKEEALSPFYSERLKEAHVRLYPSSRCTSQHLLNRTVTDNMLCAGDTRSGGPQANLHDACQGDSGGPLVCLNDGRMTLVGIISWGLGCGQKDVPGVYTKVTNYLDWIRDNMRP |
| 150000 | t-PA/R275E,H417D, single-chain form (enzyme) SYQVICRDEKTQMIYQQHQSWLRPVLRSNRVEYCWCNSGRAQCHSVPVKSCSEPRCFNGGTCQQALYFSDFVCQCPEGFAGKCCEIDTRATCYEDQGISYRGTWSTAESGAECTNWNSSALAQKPYSGRRPDAIRLGLGNHNYCRNPDRDSKPWCYVFKAGKYSSEFCSTPACSEGNSDCYFGNGSAYRGTHSLTESGASCLPWNSMILIGKVYTAQNPSAQALGLGKHNYCRNPDGDAKPWCHVLKNRRLTWEYCDVPSCSTCGLRQYSQPQFEIKGGLFADIASHPWQAAIFAKHRRSPGERFLCGGILISSCWILSAAHCFQERFPPHHLTVILGRTYRVVPGEEEQKFEVEKYIVHKEFDDDTYDNDIALLQLKSDSSRCAQESSVVRTVCLPPADLQLPDWTECELSGYGKDEALSPFYSERLKEAHVRLYPSSRCTSQHLLNRTVTDNMLCAGDTRSGGPQANLHDACQGDSGGPLVCLNDGRMTLVGIISWGLGCGQKDVPGVYTKVTNYLDWIRDNMRP |
